Experimental data from PMC7083622.

T1: Zscan4(ZnF) (Mus musculus, UniProt Q80VJ6 369-506)
T1 sequence: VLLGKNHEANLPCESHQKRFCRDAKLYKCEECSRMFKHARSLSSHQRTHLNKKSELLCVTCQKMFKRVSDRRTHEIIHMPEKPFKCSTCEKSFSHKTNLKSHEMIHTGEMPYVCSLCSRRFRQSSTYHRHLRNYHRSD


Key:
[1] = molecular target: T1, Zscan4(ZnF); assay: EMSA
[2] = molecular target: T1, Zscan4(ZnF); assay: EMSA; remark: listed apart in the source

| Binder | binding result [1] | Kd [2] [µM] |
| --- | --- | --- |
| (GC)n oligo (dsDNA) DNA 1: TCGCGCGTCGCGCGTCGCGCGC DNA 2: GCGCGCGACGCGCGACGCGCGA | no binding | – |
| (TG)n oligo (dsDNA) DNA 1: TGTGTGCATCTGTGTGCATCAT DNA 2: ATGATGCACACAGATGCACACA | – | ~500 |
